For this data set, the system named is Escherichia coli TOP10. Briefly: shrunken log2 fold change of peptide-encoding DNA abundance (4.5 h post-induction vs induction); higher = less antimicrobial activity (less host growth inhibition). As to conditions: time post-induction: 4.5 h; library: site-saturation at positions 5, 18, 19, 20.
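Further: peptides expressed intracellularly from a pBAD plasmid library in pooled LB shake-flask culture, induced with 0.3% L-arabinose, DNA abundance read by NGS, three biological replicates, DESeq2 with apeglm shrinkage.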

In the case of RRIRGRPPRLPRPRPRPGNLPRP, the “shrunken log2 fold change” value was -0.639.

For RRIRNRPPRLPRPRPRPPECPRP, the “shrunken log2 fold change” value was 0.015.

Turning to RRIRIRPPRLPRPRPRPQHKPRP, the “shrunken log2 fold change” value was -0.621.

For the sequence RRIRYRPPRLPRPRPRPYWDPRP, the “shrunken log2 fold change” value is -0.483.

Take RRIRGRPPRLPRPRPRPGWRPRP: the “shrunken log2 fold change” value came to 1.09.

Take RRIRDRPPRLPRPRPRPWPGPRP: the “shrunken log2 fold change” value was found to be 0.104.

In the case of RRIRERPPRLPRPRPRPPIWPRP, the “shrunken log2 fold change” value was -0.0729.

With RRIRIRPPRLPRPRPRPKCGPRP, the “shrunken log2 fold change” value is -0.0309.

Take RRIRYRPPRLPRPRPRPKPSPRP: the “shrunken log2 fold change” value was found to be 0.433.

On to RRIRQRPPRLPRPRPRPYSHPRP, for which the “shrunken log2 fold change” value is -0.0388.

Take RRIRYRPPRLPRPRPRPWYTPRP: the “shrunken log2 fold change” value was -1.81.

RRIRCRPPRLPRPRPRPRMAPRP: the “shrunken log2 fold change” value was found to be 0.331.

Take RRIRDRPPRLPRPRPRPVETPRP: the “shrunken log2 fold change” value was 0.222.

Turning to RRIRERPPRLPRPRPRPRVYPRP, the “shrunken log2 fold change” value is 0.000497.

For RRIRMRPPRLPRPRPRPAPGPRP, the “shrunken log2 fold change” value was 2.04.

Turning to RRIRDRPPRLPRPRPRPCICPRP, the “shrunken log2 fold change” value was determined as 0.159.

Take RRIRFRPPRLPRPRPRPCATPRP: the “shrunken log2 fold change” value amounted to 0.0672.

For RRIRFRPPRLPRPRPRPARQPRP, the “shrunken log2 fold change” value was 0.379.

With RRIRSRPPRLPRPRPRPTLDPRP, the “shrunken log2 fold change” value came out at 0.47.

Consider RRIRWRPPRLPRPRPRPRIVPRP, for which the “shrunken log2 fold change” value was determined as 0.0526.

Take RRIRERPPRLPRPRPRPFDSPRP: the “shrunken log2 fold change” value is -1.81.

Take RRIRSRPPRLPRPRPRPQASPRP: the “shrunken log2 fold change” value amounted to 0.552.

For the sequence RRIRERPPRLPRPRPRPFGCPRP, the “shrunken log2 fold change” value is -0.0136.

As to RRIRTRPPRLPRPRPRPYAKPRP, the “shrunken log2 fold change” value was -0.0117.

Consider RRIRLRPPRLPRPRPRPVCAPRP, for which the “shrunken log2 fold change” value is 0.174.

With RRIRFRPPRLPRPRPRPDGKPRP, the “shrunken log2 fold change” value is -0.3.

Consider RRIRERPPRLPRPRPRPLFFPRP, for which the “shrunken log2 fold change” value was -0.225.

RRIRMRPPRLPRPRPRPEQQPRP: the “shrunken log2 fold change” value is -0.0233.

In the case of RRIRLRPPRLPRPRPRPTYDPRP, the “shrunken log2 fold change” value was 0.0466.

Turning to RRIRLRPPRLPRPRPRPEWTPRP, the “shrunken log2 fold change” value is -0.019.

As to RRIRCRPPRLPRPRPRPTIQPRP, the “shrunken log2 fold change” value is -0.508.

For RRIRMRPPRLPRPRPRPIEDPRP, the “shrunken log2 fold change” value was 0.224.

With RRIRYRPPRLPRPRPRPARVPRP, the “shrunken log2 fold change” value is -0.0653.

For RRIRLRPPRLPRPRPRPQFCPRP, the “shrunken log2 fold change” value was -0.137.

For RRIRRRPPRLPRPRPRPQAKPRP, the “shrunken log2 fold change” value is 0.418.

For the sequence RRIRGRPPRLPRPRPRPKEVPRP, the “shrunken log2 fold change” value amounted to 0.00437.

As for RRIRSRPPRLPRPRPRPVWGPRP, the “shrunken log2 fold change” value amounted to 0.185.

With RRIRLRPPRLPRPRPRPKVPPRP, the “shrunken log2 fold change” value worked out at 0.0509.

RRIRSRPPRLPRPRPRPVNYPRP: the “shrunken log2 fold change” value is -0.0921.

On to RRIRRRPPRLPRPRPRPYCMPRP, for which the “shrunken log2 fold change” value was -0.546.

For the sequence RRIRFRPPRLPRPRPRPAVTPRP, the “shrunken log2 fold change” value is -0.347.

As to RRIRFRPPRLPRPRPRPHVIPRP, the “shrunken log2 fold change” value was -0.196.

On to RRIRFRPPRLPRPRPRPHRRPRP, for which the “shrunken log2 fold change” value worked out at 0.189.

For the sequence RRIRSRPPRLPRPRPRPPIGPRP, the “shrunken log2 fold change” value was determined as 0.297.

On to RRIRARPPRLPRPRPRPEQQPRP, for which the “shrunken log2 fold change” value was found to be 0.785.

For RRIRKRPPRLPRPRPRPQKLPRP, the “shrunken log2 fold change” value amounted to 0.015.

Take RRIRFRPPRLPRPRPRPIPNPRP: the “shrunken log2 fold change” value is -0.361.

Turning to RRIRWRPPRLPRPRPRPRRNPRP, the “shrunken log2 fold change” value came to 0.0585.

Turning to RRIRCRPPRLPRPRPRPHDLPRP, the “shrunken log2 fold change” value was -0.46.

Turning to RRIRDRPPRLPRPRPRPHIEPRP, the “shrunken log2 fold change” value is 0.0695.

Turning to RRIRLRPPRLPRPRPRPQYQPRP, the “shrunken log2 fold change” value is -0.801.

In the case of RRIRMRPPRLPRPRPRPFCNPRP, the “shrunken log2 fold change” value was -0.148.

As for RRIRVRPPRLPRPRPRPVWVPRP, the “shrunken log2 fold change” value was -0.123.

Take RRIRNRPPRLPRPRPRPYADPRP: the “shrunken log2 fold change” value is -0.161.

As to RRIRTRPPRLPRPRPRPKEQPRP, the “shrunken log2 fold change” value was 0.0592.

On to RRIRFRPPRLPRPRPRPGAYPRP, for which the “shrunken log2 fold change” value came to 0.116.

On to RRIRDRPPRLPRPRPRPRQNPRP, for which the “shrunken log2 fold change” value was determined as 0.00972.

For RRIRGRPPRLPRPRPRPMGGPRP, the “shrunken log2 fold change” value came out at 0.458.

Turning to RRIRHRPPRLPRPRPRPPANPRP, the “shrunken log2 fold change” value worked out at 0.478.

Regarding RRIRLRPPRLPRPRPRPISMPRP, the “shrunken log2 fold change” value is -0.801.

RRIRYRPPRLPRPRPRPPYVPRP: the “shrunken log2 fold change” value is -0.266.

On to RRIRARPPRLPRPRPRPWNDPRP, for which the “shrunken log2 fold change” value is -0.158.

On to RRIRVRPPRLPRPRPRPKYGPRP, for which the “shrunken log2 fold change” value was -0.141.

As to RRIRARPPRLPRPRPRPECEPRP, the “shrunken log2 fold change” value amounted to 0.0705.

Turning to RRIRLRPPRLPRPRPRPQIMPRP, the “shrunken log2 fold change” value is -0.444.

In the case of RRIRLRPPRLPRPRPRPIPNPRP, the “shrunken log2 fold change” value is -0.135.

For the sequence RRIRIRPPRLPRPRPRPAGMPRP, the “shrunken log2 fold change” value is -0.0321.

Consider RRIRNRPPRLPRPRPRPEGWPRP, for which the “shrunken log2 fold change” value is 0.68.

Regarding RRIRCRPPRLPRPRPRPEYHPRP, the “shrunken log2 fold change” value was -0.222.

Consider RRIRWRPPRLPRPRPRPHTPPRP, for which the “shrunken log2 fold change” value was found to be 0.0133.

Take RRIRWRPPRLPRPRPRPHIDPRP: the “shrunken log2 fold change” value is -0.466.

Take RRIRGRPPRLPRPRPRPSLKPRP: the “shrunken log2 fold change” value worked out at 0.441.

Consider RRIRSRPPRLPRPRPRPIWSPRP, for which the “shrunken log2 fold change” value came to 0.0119.

With RRIRHRPPRLPRPRPRPLAAPRP, the “shrunken log2 fold change” value was determined as 0.325.

As for RRIRSRPPRLPRPRPRPWTCPRP, the “shrunken log2 fold change” value is 0.00516.

Regarding RRIRKRPPRLPRPRPRPWGWPRP, the “shrunken log2 fold change” value came to 0.691.

With RRIRRRPPRLPRPRPRPYKKPRP, the “shrunken log2 fold change” value is 0.142.

For the sequence RRIRKRPPRLPRPRPRPFIYPRP, the “shrunken log2 fold change” value is -0.144.

With RRIRTRPPRLPRPRPRPACSPRP, the “shrunken log2 fold change” value came out at 0.19.

In the case of RRIRHRPPRLPRPRPRPFILPRP, the “shrunken log2 fold change” value was -0.675.

As to RRIRGRPPRLPRPRPRPYVWPRP, the “shrunken log2 fold change” value was determined as 0.131.

As to RRIRARPPRLPRPRPRPDIDPRP, the “shrunken log2 fold change” value turned out to be 0.462.

As to RRIRYRPPRLPRPRPRPIRQPRP, the “shrunken log2 fold change” value was -0.0123.

RRIRKRPPRLPRPRPRPDVRPRP: the “shrunken log2 fold change” value amounted to 0.0826.

As for RRIRDRPPRLPRPRPRPYCMPRP, the “shrunken log2 fold change” value is -0.28.

On to RRIRMRPPRLPRPRPRPKSHPRP, for which the “shrunken log2 fold change” value is -0.0378.

In the case of RRIRFRPPRLPRPRPRPAESPRP, the “shrunken log2 fold change” value is -0.117.

On to RRIRPRPPRLPRPRPRPYYAPRP, for which the “shrunken log2 fold change” value is -0.709.

Turning to RRIRIRPPRLPRPRPRPNKRPRP, the “shrunken log2 fold change” value is -0.368.

For the sequence RRIRVRPPRLPRPRPRPGCHPRP, the “shrunken log2 fold change” value was determined as 0.363.

With RRIRQRPPRLPRPRPRPYPNPRP, the “shrunken log2 fold change” value was -0.0164.

As for RRIRIRPPRLPRPRPRPGRVPRP, the “shrunken log2 fold change” value was 0.0447.

In the case of RRIRWRPPRLPRPRPRPHCQPRP, the “shrunken log2 fold change” value was -0.102.

Regarding RRIRPRPPRLPRPRPRPWYEPRP, the “shrunken log2 fold change” value was -0.441.

Consider RRIRQRPPRLPRPRPRPVSQPRP, for which the “shrunken log2 fold change” value was found to be 0.00815.

RRIRKRPPRLPRPRPRPVLHPRP: the “shrunken log2 fold change” value was 0.484.

On to RRIRRRPPRLPRPRPRPRKHPRP, for which the “shrunken log2 fold change” value amounted to 0.535.

With RRIRKRPPRLPRPRPRPQDCPRP, the “shrunken log2 fold change” value was -0.104.

RRIRPRPPRLPRPRPRPCWEPRP: the “shrunken log2 fold change” value was -0.0268.

Regarding RRIRARPPRLPRPRPRPTHDPRP, the “shrunken log2 fold change” value was determined as 0.645.

Turning to RRIRKRPPRLPRPRPRPKNNPRP, the “shrunken log2 fold change” value is -0.047.

Regarding RRIRGRPPRLPRPRPRPIQFPRP, the “shrunken log2 fold change” value is -0.146.

As for RRIRERPPRLPRPRPRPRVKPRP, the “shrunken log2 fold change” value was -0.207.

For RRIRPRPPRLPRPRPRPSLIPRP, the “shrunken log2 fold change” value is -0.181.

Consider RRIRSRPPRLPRPRPRPVEGPRP, for which the “shrunken log2 fold change” value was -0.00141.

With RRIRLRPPRLPRPRPRPTDMPRP, the “shrunken log2 fold change” value is -0.633.

In the case of RRIRMRPPRLPRPRPRPHVWPRP, the “shrunken log2 fold change” value turned out to be 0.281.

As to RRIRARPPRLPRPRPRPIKDPRP, the “shrunken log2 fold change” value turned out to be 0.0786.

For RRIRVRPPRLPRPRPRPERVPRP, the “shrunken log2 fold change” value was -0.107.

Regarding RRIRTRPPRLPRPRPRPWFSPRP, the “shrunken log2 fold change” value is -0.152.

On to RRIRDRPPRLPRPRPRPTGYPRP, for which the “shrunken log2 fold change” value was found to be 0.0485.

In the case of RRIRVRPPRLPRPRPRPEFEPRP, the “shrunken log2 fold change” value is -0.0823.

As to RRIRVRPPRLPRPRPRPQAQPRP, the “shrunken log2 fold change” value was 0.173.

For the sequence RRIRWRPPRLPRPRPRPSDHPRP, the “shrunken log2 fold change” value is -0.474.

With RRIRARPPRLPRPRPRPKIEPRP, the “shrunken log2 fold change” value was determined as 0.173.

Take RRIRSRPPRLPRPRPRPQHKPRP: the “shrunken log2 fold change” value is -0.131.

As for RRIRQRPPRLPRPRPRPFAHPRP, the “shrunken log2 fold change” value is -0.0959.

Consider RRIRNRPPRLPRPRPRPDMFPRP, for which the “shrunken log2 fold change” value was -0.00166.

With RRIRHRPPRLPRPRPRPANKPRP, the “shrunken log2 fold change” value is -0.291.

For the sequence RRIRDRPPRLPRPRPRPQFGPRP, the “shrunken log2 fold change” value is -0.36.

Take RRIRSRPPRLPRPRPRPTTMPRP: the “shrunken log2 fold change” value is 0.0245.

Regarding RRIRARPPRLPRPRPRPIRQPRP, the “shrunken log2 fold change” value was -0.00194.

Consider RRIRGRPPRLPRPRPRPREMPRP, for which the “shrunken log2 fold change” value worked out at 1.2.

For the sequence RRIRIRPPRLPRPRPRPVICPRP, the “shrunken log2 fold change” value was -0.063.

For the sequence RRIRMRPPRLPRPRPRPFMLPRP, the “shrunken log2 fold change” value was -0.213.

For the origin of these results see the supplement of paper PMC9112550, “Optimization of the antimicrobial peptide Bac7 by deep mutational scanning” (BMC Biology, 2022).
